Source: PMC12961186, “JUNO-coated beads as a functional assay to capture and characterize fertilization-competent human sperm” (Human Reproduction Open, 2026)

Target: T1, Recombinant human IZUMO1 ectodomain (residues 22-254) (human, UniProt Q8IYV9 22-254)
T1 construct: IZUMO1, human, UniProt Q8IYV9, residues 22-254 (ectodomain); The construct has an N-terminal BiP signal peptide for secretion and a thrombin cleavage site before the C-terminal 10xHis tag; In the bead assay the tag was probably cleaved, since the beads capture His tags (surmise); also called rIZUMO1; IZUMO1 (residues 22-254); source: Drosophila S2 cells, stably transfected, secreted; purified …
Experiment: SPR; Nicoya Alto digital SPR, single-cycle kinetics, 25 °C; biotinylated JUNO (800 nM) immobilised as bait on streptavidin-coated carboxyl PEG cartridge; IZUMO1 as analyte at 1000, 333, 111, 37 and 12.3 nM; PBS pH 7.4, 0.05% Tween-20; technical triplicate
Conditions: both partners purified

T1 sequence (Q8IYV9 22-254): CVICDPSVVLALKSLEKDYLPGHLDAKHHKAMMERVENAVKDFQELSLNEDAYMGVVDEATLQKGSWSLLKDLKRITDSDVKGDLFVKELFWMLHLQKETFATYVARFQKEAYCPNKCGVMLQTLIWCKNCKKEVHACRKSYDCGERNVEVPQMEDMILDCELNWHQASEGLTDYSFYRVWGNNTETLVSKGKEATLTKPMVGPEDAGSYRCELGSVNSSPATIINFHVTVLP

Kd: 37.6 nM
koff: 0.00387 s⁻¹
kon: 103000 M⁻¹ s⁻¹
B1: Human JUNO ectodomain (residues 20-228), biotinylated (domain or fragment, UniProt A6ND01 20-228, looked up)
chain: GDELLNICMNAKHHKRVPSPEDKLYEECIPWKDNACCTLTTSWEAHLDVSPLYNFSLFHCGLLMPGCRKHFIQAICFYECSPNLGPWIQPVGSLGWEVAPSGQGERVVNVPLCQEDCEEWWEDCRMSYTCKSNWRGGWDWSQGKNRCPKGAQCLPFSHYFPTPADLCEKTWSNSFKASPERRNSGRCLQKWFEPAQGNPNVAVARLFAS
modifications: biotin (EZ-link Sulfo-NHS-LC-Biotin, 1:1 molar ratio); glycosylated
notes: JUNO, human, UniProt A6ND01, residues 20-228 (ectodomain); The construct has an N-terminal BiP signal peptide for secretion and a thrombin cleavage site before the C-terminal 10xHis tag; also called recombinant JUNO; rhJUNO; source: Drosophila S2 cells, stably transfected, secreted; purified (Ni-NTA, SEC)
